US20250376533A1 (FUTUREGEN BIOPHARMACEUTICAL BEIJING, published 2025)

T1: rat CD40 antigen (ACROBiosystems) (rat, UniProt A6JXD6 20-193)
T1 construct: Bought antigen coated on ELISA plates; construct not described
T1 sequence: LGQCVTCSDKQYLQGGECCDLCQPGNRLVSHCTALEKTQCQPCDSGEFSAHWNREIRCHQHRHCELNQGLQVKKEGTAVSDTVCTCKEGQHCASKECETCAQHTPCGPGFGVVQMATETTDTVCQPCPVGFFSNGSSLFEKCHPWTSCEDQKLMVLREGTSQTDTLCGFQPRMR


Columns and labels:
[1] = target: T2, human CD40 antigen (ACROBiosystems) (human, UniProt P25942 21-193); assay: ELISA, coated antigen
T2 construct: Bought antigen coated on ELISA plates; construct not described
Protocol: (§1) The binding ability of bispecific antibody to human PD-L1 and human CD40, as well as the species specificity, was detected using an enzyme-linked immunosorbent assay (ELISA). The specific method is as follows: human PD-L1, cynomolgus PD-L1, rat PD-L1, mouse PD-L1, human CD40, cynomolgus CD40, rat CD40, and mouse CD40 antigens (all purchased from ACROBiosystems) were coated with 1 μg/mL carbonate buffer (pH=9.6) in an ELISA plate at 100 μL per well, followed by incubation at 4° C. overnight. The wells were washed 5 times with PBST. 300 μL/well of PBST containing 1% BSA was added to block the wells, and the plate was incubated at room temperature for 1 hour. The wells were washed 5 times with PBST. […] The wells were washed 5 times with PBST. […] The wells were washed 5 times with PBST. Colorimetric substrate TMB was added at 100 μL per well and allowed to develop color at room temperature for 10 minutes, followed by the addition of 1 M sulfuric acid to terminate the reaction. The OD_{450 nm} was read on a microplate reader to analyze the results, and the EC₅₀ was calculated using a 4-parameter fit binding curve.
(§2) These bispecific antibodies are not able to bind to rat PD-L1 and CD40 or mouse PD-L1 and CD40.

[2] = target: T3, cynomolgus CD40 antigen (ACROBiosystems) (cynomolgus, UniProt G7PG38 21-193); assay: ELISA, coated antigen
T3 construct: Bought antigen coated on ELISA plates; construct not described
Protocol: as §1, §2

[3] = target: T1, rat CD40 antigen (ACROBiosystems); assay: ELISA, coated antigen
Protocol: as §1, §2

[4] = target: T4, mouse CD40 antigen (ACROBiosystems) (mouse, UniProt P27512 24-193, limits assumed); assay: ELISA, coated antigen
T4 construct: Bought antigen coated on ELISA plates; construct not described
Protocol: as §1, §2

[5] = target: T5, human PD-L1 antigen (ACROBiosystems) (human, UniProt Q9NZQ7 19-238); assay: ELISA, coated antigen
T5 construct: Bought antigen coated on ELISA plates
Protocol: as §1, §2

[6] = target: T6, cynomolgus PD-L1 antigen (ACROBiosystems) (cynomolgus, UniProt G7PSE7 19-238); assay: ELISA, coated antigen
T6 construct: Bought antigen coated on ELISA plates; construct not described
Protocol: as §1, §2

[7] = target: T7, rat PD-L1 antigen (ACROBiosystems) (rat, UniProt D4AE25 19-239); assay: ELISA, coated antigen
T7 construct: Bought antigen coated on ELISA plates; construct not described
Protocol: as §1, §2

[8] = target: T8, mouse PD-L1 antigen (ACROBiosystems) (mouse, UniProt Q9EP73 19-239); assay: ELISA, coated antigen
T8 construct: Bought antigen coated on ELISA plates; construct not described
Protocol: as §1, §2

[9] = target: T9, CD40 on HEK-Blue CD40L cells (InvivoGen) (UniProt P25942 21-277, limits assumed); assay: cell-based or functional assay
[10] = target: T9, CD40 on HEK-Blue CD40L cells (InvivoGen); assay: flow cytometry, competition with 10 nM Biotin-CD40L on HEK-Blue CD40L cells
Protocol: The blocking effect of bispecific antibodies on CD40/CD40L binding was tested using HEK-Blue CD40L cells that highly express CD40. The specific method is as follows: HEK-Blue CD40L cells were collected and resuspended in pre-cooled PBS containing 2% FBS at a density of 1E7 cells/mL, and then added to a 96-well plate at 50 μL per well, i.e., 5E5 cells/well. Biotin-CD40L (FutureGen Biopharmaceutical) and serially diluted bispecific antibody were then added at 50 μL per well, with a final concentration of Biotin-CD40L of 10 nM, and the plate was incubated at 4° C. for 1 hour. The wells were washed twice with pre-cooled PBS. Streptavidin-PE (BioLegend, Cat. No. 405203) diluted in pre-cooled PBS containing 2% FBS was added, and the plate was incubated at 4° C. for 30 minutes. The wells were washed twice with pre-cooled PBS. The cells were then resuspended in pre-cooled PBS containing 2% FBS and assayed by flow cytometry.

[11] = target: T2, human CD40 antigen (ACROBiosystems); assay: bridging ELISA: coated human CD40, serially diluted bispecific antibody, detection with biotin-labeled human PD-L1 and streptavidin-HRP, OD450
Protocol: Antigen human CD40 (purchased from ACROBiosystems) was coated with 1 μg/mL carbonate buffer (pH=9.6) in an ELISA plate at 100 μL per well, followed by incubation at 4° C. overnight. The wells were washed 5 times with PBST. 300 μL/well of PBST containing 1% BSA was added to block the wells, and the plate was incubated at room temperature for 1 hour. The wells were washed 5 times with PBST. […] The wells were washed 5 times with PBST. Biotin-labeled human PD-L1 (FutureGen Biopharmaceutical) diluted with PBST containing 1% BSA was added at 100 μL per well, and the plate was incubated at room temperature for 1 hour. The wells were washed 5 times with PBST. Streptavidin-HRP (BioLegend, Cat. No. 405210) diluted with PBST containing 1% BSA was added at 100 μL per well, and the plate was incubated at room temperature for 30 minutes. Colorimetric substrate TMB was added at 100 μL per well and allowed to develop color at room temperature for 10 minutes, followed by the addition of 1 M sulfuric acid to terminate the reaction. The OD_[…] was read on a microplate reader to analyze the results, and the EC₅₀ was calculated using a 4-parameter fit binding curve.

T6 sequence (G7PSE7 entry or part of it): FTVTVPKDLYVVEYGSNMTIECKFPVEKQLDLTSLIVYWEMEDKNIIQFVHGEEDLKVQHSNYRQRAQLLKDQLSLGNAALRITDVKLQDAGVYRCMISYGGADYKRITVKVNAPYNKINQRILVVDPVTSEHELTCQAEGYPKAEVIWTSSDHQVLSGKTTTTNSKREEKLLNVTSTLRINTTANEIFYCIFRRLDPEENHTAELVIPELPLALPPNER
T9 sequence (P25942 21-277 limits assumed): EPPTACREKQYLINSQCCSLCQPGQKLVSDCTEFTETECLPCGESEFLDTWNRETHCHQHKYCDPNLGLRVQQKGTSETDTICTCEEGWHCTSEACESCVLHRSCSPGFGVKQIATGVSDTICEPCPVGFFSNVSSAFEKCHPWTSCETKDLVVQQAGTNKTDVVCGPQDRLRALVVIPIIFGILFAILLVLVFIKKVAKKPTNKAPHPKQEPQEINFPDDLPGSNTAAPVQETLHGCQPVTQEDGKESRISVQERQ
T7 sequence (D4AE25 entry or part of it limits assumed): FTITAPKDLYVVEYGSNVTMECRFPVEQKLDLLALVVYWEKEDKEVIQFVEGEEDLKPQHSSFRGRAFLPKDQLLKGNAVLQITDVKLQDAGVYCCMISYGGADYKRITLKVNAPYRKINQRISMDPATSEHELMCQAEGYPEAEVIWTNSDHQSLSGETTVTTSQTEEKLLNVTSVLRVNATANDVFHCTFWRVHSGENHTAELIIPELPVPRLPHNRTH
T4 sequence (P27512 24-193 limits assumed): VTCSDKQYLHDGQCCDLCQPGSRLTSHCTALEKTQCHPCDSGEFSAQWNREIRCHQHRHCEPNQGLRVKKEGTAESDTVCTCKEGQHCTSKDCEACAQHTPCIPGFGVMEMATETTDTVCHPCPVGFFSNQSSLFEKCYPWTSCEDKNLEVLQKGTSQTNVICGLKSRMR
T2 sequence (P25942 21-193 limits assumed): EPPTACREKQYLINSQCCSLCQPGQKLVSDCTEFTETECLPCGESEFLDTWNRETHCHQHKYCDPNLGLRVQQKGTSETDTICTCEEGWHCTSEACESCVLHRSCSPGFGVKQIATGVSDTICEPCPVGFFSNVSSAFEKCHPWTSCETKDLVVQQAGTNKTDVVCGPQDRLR
T5 sequence (Q9NZQ7 19-238 limits assumed): as the sequence (G7PSE7 entry or part of it) above, with T33A, S34A, N62S, Q68R, R82Q, L173F, A185T, I192T, L215H counted along it
T8 sequence (Q9EP73 19-239 limits assumed): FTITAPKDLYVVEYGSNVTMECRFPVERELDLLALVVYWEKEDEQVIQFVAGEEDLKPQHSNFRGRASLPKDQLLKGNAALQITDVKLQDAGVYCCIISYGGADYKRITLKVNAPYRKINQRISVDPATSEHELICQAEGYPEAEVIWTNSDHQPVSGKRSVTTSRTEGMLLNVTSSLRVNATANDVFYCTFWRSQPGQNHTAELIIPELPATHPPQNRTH

Row | EC50 [1] | EC50 [2] | binding result [3] | binding result [4] | EC50 [5] | EC50 [6] | binding result [7] | binding result [8] | CD40 agonistic activity (A)/(B) Ratio, EC50 without over with CHO/PD-L1 [9] | CD40 agonistic activity EC50 (nM) with CHO/PD-L1 (B), SEAP reporter [9] | CD40 agonistic activity EC50 (nM) without CHO/PD-L1 (A), SEAP reporter [9] | IC50 [10] | EC50 [11] | Binder
1 | 0.024 nM | 0.02 nM | no binding | no binding | 0.039 nM | 0.022 nM | no binding | no binding | 3.7 | 0.017 nM | 0.061 nM | 0.78 nM | 0.04 nM | anti-PD-L1/CD40 bispecific antibody 1606 (bispecific antibody, human IgG2, kappa, First polypeptide chain = anti-CD40 light chain; second polypeptide chain = anti-CD40 heavy chain with the 1541 VHH joined to its C-terminus by a G4S linker) light: DIQMTQSPSSLSASVGDRVTITCRASQDIRNYLNWYQQKPGKAPKLLIYYTSRRDSGVPSRFSGSGSGTDYTLTISSLQPEDFATYFCQQGKTLPWTFGGGTKVEIKRTVAAPSVFIFPPSDEQLKSGTASVVCLLNNFYPREAKVQWKVDNALQSGNSQESVTEQDSKDSTYSLSSTLTLSKADYEKHKVYACEVTHQGLSSPVTKSFNRGEC heavy: EVQLVESGGGLVQPGGSLRLSCAASGFTFSDYYMSWVRQAPGKGLEWVGFIRNKANGYTTEYAASVKGRFTISRDNSKNTLYLQMNSLRAEDTAVYYCARYGGLRQGWYFDVWGQGTLVTVSSASTKGPSVFPLAPCSRSTSESTAALGCLVKDYFPEPVTVSWNSGALTSGVHTFPAVLQSSGLYSLSSVVTVPSSNFGTQTYTCNVDHKPSNTKVDKTVERKCCVECPPCPAPPVAGPSVFLFPPKPKDTLMISRTPEVTCVVVDVSHEDPEVQFNWYVDGVEVHNAKTKPREEQFNSTFRVVSVLTVVHQDWLNGKEYKCKVSNKGLPAPIEKTISKTKGQPREPQVYTLPPSREEMTKNQVSLTCLVKGFYPSDIAVEWESNGQPENNYKTTPPMLDSDGSFFLYSKLTVDKSRWQQGNVFSCSVMHEALHNHYTQKSLSLSPGGGGGSGGGGSGGGGSGEVQLVESGGGLVQPGGSLRLSCAASGFTFDYYTQCWFRQAPGKEREWVSCISSSEGSTYYADSVKGRFTISRDNSKNTVYLQMNSLKTEDTAVYYCAARKGGPLTIENFFDYWGQGTQVTVSS
2 | 0.022 nM | 0.02 nM | no binding | no binding | 0.038 nM | 0.019 nM | no binding | no binding | 20.2 | 0.02 nM | 0.396 nM | 4.54 nM | 0.029 nM | anti-PD-L1/CD40 bispecific antibody 1608 (bispecific antibody, human IgG2, kappa, First polypeptide chain = anti-CD40 light chain; second polypeptide chain = anti-CD40 heavy chain with the 1541 VHH joined to its C-terminus by a G4S linker) light: not shown heavy: EVQLVESGGGLVQPGGSLRLSCAASGFTFSNYYMSWVRQAPGKGLEWVGFIRNKANGYTTEYAASVKGRFTISRDNSKSTLYLQMNRLRAEDTAVYYCARYGGLKVGWYFDLWGQGTLVTVSSASTKGPSVFPLAPCSRSTSESTAALGCLVKDYFPEPVTVSWNSGALTSGVHTFPAVLQSSGLYSLSSVVTVPSSNFGTQTYTCNVDHKPSNTKVDKTVERKCCVECPPCPAPPVAGPSVFLFPPKPKDTLMISRTPEVTCVVVDVSHEDPEVQFNWYVDGVEVHNAKTKPREEQFNSTFRVVSVLTVVHQDWLNGKEYKCKVSNKGLPAPIEKTISKTKGQPREPQVYTLPPSREEMTKNQVSLTCLVKGFYPSDIAVEWESNGQPENNYKTTPPMLDSDGSFFLYSKLTVDKSRWQQGNVFSCSVMHEALHNHYTQKSLSLSPGGGGGSGGGGSGGGGSGEVQLVESGGGLVQPGGSLRLSCAASGFTFDYYTQCWFRQAPGKEREWVSCISSSEGSTYYADSVKGRFTISRDNSKNTVYLQMNSLKTEDTAVYYCAARKGGPLTIENFFDYWGQGTQVTVSS
3 | 0.02 nM | 0.016 nM | no binding | no binding | 0.036 nM | 0.019 nM | no binding | no binding | 2.4 | 0.012 nM | 0.029 nM | 0.703 nM | 0.032 nM | anti-PD-L1/CD40 bispecific antibody 1607 (bispecific antibody, human IgG2, kappa, First polypeptide chain = anti-CD40 light chain; second polypeptide chain = anti-CD40 heavy chain with the 1541 VHH joined to its C-terminus by a G4S linker) light: not shown heavy: EVQLVESGGGLVQPGGSLRLSCAASGFTFSDYYMSWVRQAPGKGLEWVGFIRNKANGYTTEYAASVKGRFTISRDNSKSTLYLQMNSLRAEDTAVYYCARYGGLKKGWYFDLWGQGTLVTVSSASTKGPSVFPLAPCSRSTSESTAALGCLVKDYFPEPVTVSWNSGALTSGVHTFPAVLQSSGLYSLSSVVTVPSSNFGTQTYTCNVDHKPSNTKVDKTVERKCCVECPPCPAPPVAGPSVFLFPPKPKDTLMISRTPEVTCVVVDVSHEDPEVQFNWYVDGVEVHNAKTKPREEQFNSTFRVVSVLTVVHQDWLNGKEYKCKVSNKGLPAPIEKTISKTKGQPREPQVYTLPPSREEMTKNQVSLTCLVKGFYPSDIAVEWESNGQPENNYKTTPPMLDSDGSFFLYSKLTVDKSRWQQGNVFSCSVMHEALHNHYTQKSLSLSPGGGGGSGGGGSGGGGSGEVQLVESGGGLVQPGGSLRLSCAASGFTFDYYTQCWFRQAPGKEREWVSCISSSEGSTYYADSVKGRFTISRDNSKNTVYLQMNSLKTEDTAVYYCAARKGGPLTIENFFDYWGQGTQVTVSS
